Target: membrane-associated human IR-A (plasma membranes of BHK cells stably transfected with human IR-A) (human) (UniProt P06213)
Assay: competition SPA, displacement of [125I-A14Y]-human insulin from membrane-associated human IR-A; affinity relative to human insulin standard

| Substance | hIRA mem (% rel to HI), relative binding affinity |
| --- | --- |
| A9E, B3E, B26E, desB30 human insulin (ligand) | 55.8 % rel to HI |
| A9E, B3E, B27E, B28E, desB30 human insulin (ligand) | 35.4 % rel to HI |
